Positions of bridges follow the written chain, without caps; N, C: chain ends.
Assays:
[1] = test system: CD40L-transfected murine fibroblasts; test: Flow cytometry: binding of FITC-cM7 to CD40L- or mock-transfected murine fibroblasts; format: cell-based
Protocol: Flow cytometric analysis, platelet activation assays, and quantification of leukocyte-platelet aggregates, were performed as previously described (Zirlik et al., 2007). Binding of cM7 to CD40L-expressing murine fibroblasts was determined by quantification of FITC-coupled cM7. Binding of CD40L to Mac-1 expressing CHO-cells or human leukocytes was performed by incubation with CD40L (10 μg/ml) and subsequent detection with anti-PentaHis antibody (Qiagen).
Flow cytometric analyses, as well as platelet activation assays and quantification of leukocyte-platelet aggregates were performed as previously described (Quezada et al., Ann. Rev. Immunol. (2004), pp 307-328). Briefly, murine blood samples were taken by intracardiac puncture. Red cells were lyzed in 155 mM NH4Cl, 5.7 mM K2HPO4, 0.1 mM EDTA, pH 7.3. […] Antibodies for epitope specific fluorescence-activated cell sorting (FACS Calibur, BD) included anti-CD11b, anti-CD115, anti-Gr-1, anti-CD4, anti-CD8, anti-CD20, anti-CD41, anti-CD62P, anti-CD54, anti-CD102, and anti-CD106 (all from Ebioscience). Binding of cM7 to CD40L- or mock-transfected murine fibroblasts was determined by incubation of FITC-cM7 at the indicated concentrations with cells for 30 min at 37° C. and subsequent quantification of the fluorescence in the FL-1 channel. […]

[2] = target: T1, CD40L binding to Mac-1 I-domain (Homo sapiens, UniProt P29965); test: Solid phase binding assay: blocking of CD40L binding to immobilized Mac-1 I-domain by peptides; details: peptides 50 μM
T1 construct: inserting the coding DNA for amino acids E^108 to L^261 in pHOG-21; His (N); trimerization domain (N); made in house
T1 sequence (P29965 108-261): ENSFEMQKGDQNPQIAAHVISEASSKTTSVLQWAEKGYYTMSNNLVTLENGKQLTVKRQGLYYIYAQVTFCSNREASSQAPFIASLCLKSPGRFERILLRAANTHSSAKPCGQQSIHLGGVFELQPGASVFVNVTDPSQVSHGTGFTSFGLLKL
Protocol: Solid phase binding assay. Recombinant CD40L was incubated with immobilized Mac-1 I-domain in the presence or absence of blocking peptides. Binding of sCD40L was detected by addition of anti-cmyc-HRP (Invitrogen), TMB-substrate (Pierce), and colorimetric reaction. Alternatively, CD40L (Provitro) was immobilized, and binding of the recombinant Mac-1 I-domain was quantified by addition of anti-His-Biotin (Qiagen), and HRP-coupled streptavidin (Pierce). For the binding to immobilized peptides, CD40L was biotinylated with the Micro Biotinylation Kit (Sigma). A mixture of equal molarities of all peptides served as the positive control in this assay.
The recombinant Mac-1 I-domain was immobilized in 96-well plates (Nunc) in PBS at 4° C. overnight. After blocking in 2% BSA/PBS and subsequent washing with PBS, recombinant CD40L was added to the wells in the indicated concentrations and incubated for 2 hours at 37° C. Effect of the peptides M1-M8 was assessed by incubating CD40L (10 μg/ml) in the presence of peptides (50 μM). After removing of unbound CD40L by washing with 0.1% Tween-20/PBS, anti-c-myc-HRP (Invitrogen) was added and incubated for 2 hours at room temperature. Binding was quantified by addition of TMB-substrate (Pierce), colorimetric reaction at 450 nm. Alternatively, CD40L without a His-tag (Provitro) was immobilized and blocked as described above. Binding of the recombinant Mac-1 I-domain was quantified by addition of anti-His-Biotin monoclonal antibody (Qiagen), HRP-coupled streptavidin (Pierce) and colorimetric reaction at 450 nm. For the specific binding of the Mac-1 I-domain BSA-coated wells were subtracted from the CD40L-coated. Kd was estimated using a one-site binding hyperbola nonlinear regression model with the Software Prism (Graphpad). For quantification of the binding of CD40L to peptides, peptides were immobilized in 96-well plates overnight at 4° C. in 50 mM sodium carbonate, pH 10.6. CD40L was biotinylated using the Micro-Biotinylation-Kit (Sigma) following the manufacturer's instructions and detected by HRP-coupled streptavidin (Pierce) and colorimetric reaction. A mixture of equal molarities of all peptides served as positive control. Absorbance on BSA-coated wells served as negative control and was subtracted.

C-EQLKKSKTL-C (CEQLKKSKTLC; bridge N-C; also: cyclised through the flanking Cys, bond type not given here) [FITC-labeled cM7]
binding to murine fibroblasts over-expressing CD40L [1]: concentration-dependently bound to murine fibroblasts over-expressing CD40L
binding to mock-transfected fibroblasts ([1]; control cells): but not to respective mock-transfected control cells

DAFRSEKSRQELNTI (therapeutically active peptide) [Peptide M4]
blocking of CD40L / Mac-1 I-domain binding [2]: emerged as potential candidate inhibitors

FQVNNFEALKT (therapeutically active peptide) [Peptide M5]
blocking of CD40L / Mac-1 I-domain binding [2]: emerged as potential candidate inhibitors

KFGDPLGYEDVIPEADR (therapeutically active peptide) [Peptide M3]
blocking of CD40L / Mac-1 I-domain binding [2]: emerged as potential candidate inhibitors

Source: US10994010B2, “Selective targeting of the CD40L/Mac-1 interaction by small peptide inhibitors and its use for the treatment of inflammation and atherogenesis” (Universitaetsklinikum Freiburg, priority 2010, dated 2021)
